Results on one molecule are retold here after patent publication US20090118184A1 (UNIVERSITY OF ROCHESTER, published 2009).

What all share (test): cell-based or functional assay
Test [1] has as its target T1, factor VIIIa A1/A3C1C2 dimer, Y1786F (human, UniProt P00451 20-391; P00451 1709-2351).
T1 sequence 1: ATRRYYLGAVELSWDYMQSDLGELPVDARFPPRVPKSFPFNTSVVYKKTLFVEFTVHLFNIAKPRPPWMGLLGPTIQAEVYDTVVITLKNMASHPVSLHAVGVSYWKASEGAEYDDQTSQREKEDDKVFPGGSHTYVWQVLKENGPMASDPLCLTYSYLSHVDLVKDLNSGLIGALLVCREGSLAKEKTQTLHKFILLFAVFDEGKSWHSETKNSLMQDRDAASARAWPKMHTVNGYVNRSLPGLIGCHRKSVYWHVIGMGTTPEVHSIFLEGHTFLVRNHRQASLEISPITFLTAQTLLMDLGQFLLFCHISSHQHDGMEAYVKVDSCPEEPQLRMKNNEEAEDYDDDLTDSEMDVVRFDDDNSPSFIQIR
T1 sequence 2: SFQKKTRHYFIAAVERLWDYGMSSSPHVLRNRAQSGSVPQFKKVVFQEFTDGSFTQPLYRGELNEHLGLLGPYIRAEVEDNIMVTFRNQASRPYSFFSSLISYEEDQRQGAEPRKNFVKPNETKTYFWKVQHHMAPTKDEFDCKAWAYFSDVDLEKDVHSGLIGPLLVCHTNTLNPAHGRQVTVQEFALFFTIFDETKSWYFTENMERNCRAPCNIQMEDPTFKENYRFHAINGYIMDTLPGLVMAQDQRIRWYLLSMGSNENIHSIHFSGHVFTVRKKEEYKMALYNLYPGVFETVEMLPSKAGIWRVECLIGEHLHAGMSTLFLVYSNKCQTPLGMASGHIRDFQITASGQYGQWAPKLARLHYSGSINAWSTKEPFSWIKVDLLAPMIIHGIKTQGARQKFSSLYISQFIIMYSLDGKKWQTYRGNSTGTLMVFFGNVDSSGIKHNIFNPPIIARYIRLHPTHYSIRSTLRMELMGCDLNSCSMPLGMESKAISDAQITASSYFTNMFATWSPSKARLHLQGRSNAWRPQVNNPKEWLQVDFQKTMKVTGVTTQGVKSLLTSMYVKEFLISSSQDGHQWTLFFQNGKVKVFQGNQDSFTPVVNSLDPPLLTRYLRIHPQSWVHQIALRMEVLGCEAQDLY

For test [2], the target named is T2, factor VIIIa A1/A3C1C2 dimer, D1795A (human, UniProt P00451 20-391; P00451 1709-2351).
T2 sequence 1: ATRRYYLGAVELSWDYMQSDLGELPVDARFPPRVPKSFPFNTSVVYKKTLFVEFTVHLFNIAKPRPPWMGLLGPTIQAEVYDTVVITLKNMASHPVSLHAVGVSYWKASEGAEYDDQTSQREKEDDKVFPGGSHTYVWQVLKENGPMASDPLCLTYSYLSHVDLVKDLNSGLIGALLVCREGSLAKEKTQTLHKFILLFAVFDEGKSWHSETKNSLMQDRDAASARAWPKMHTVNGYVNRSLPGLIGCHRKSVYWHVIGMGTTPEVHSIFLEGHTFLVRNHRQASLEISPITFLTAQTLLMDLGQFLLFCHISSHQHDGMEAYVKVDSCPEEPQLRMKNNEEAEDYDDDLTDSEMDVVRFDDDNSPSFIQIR
T2 sequence 2: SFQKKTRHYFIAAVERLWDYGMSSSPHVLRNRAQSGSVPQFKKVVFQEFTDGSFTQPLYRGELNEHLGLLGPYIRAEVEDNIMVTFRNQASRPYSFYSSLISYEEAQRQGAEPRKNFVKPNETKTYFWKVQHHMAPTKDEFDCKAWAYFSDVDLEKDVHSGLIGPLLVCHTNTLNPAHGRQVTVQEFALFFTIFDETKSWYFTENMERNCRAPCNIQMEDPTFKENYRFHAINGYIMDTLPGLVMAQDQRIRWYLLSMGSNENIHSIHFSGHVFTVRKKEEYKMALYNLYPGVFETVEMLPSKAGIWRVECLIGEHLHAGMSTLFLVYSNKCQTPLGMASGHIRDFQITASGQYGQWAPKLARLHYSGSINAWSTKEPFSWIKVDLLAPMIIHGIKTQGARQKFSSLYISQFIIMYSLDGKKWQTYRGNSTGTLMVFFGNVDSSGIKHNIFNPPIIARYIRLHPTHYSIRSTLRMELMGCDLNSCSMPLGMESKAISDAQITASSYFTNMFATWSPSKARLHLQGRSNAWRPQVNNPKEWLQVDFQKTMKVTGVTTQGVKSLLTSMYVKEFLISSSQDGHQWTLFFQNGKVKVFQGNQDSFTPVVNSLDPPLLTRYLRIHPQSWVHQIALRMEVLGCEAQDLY

For test [3], the target named is T3, factor VIIIa A1/A3C1C2 dimer, E287A (human, UniProt P00451 20-391; P00451 1709-2351).
T3 chain 1: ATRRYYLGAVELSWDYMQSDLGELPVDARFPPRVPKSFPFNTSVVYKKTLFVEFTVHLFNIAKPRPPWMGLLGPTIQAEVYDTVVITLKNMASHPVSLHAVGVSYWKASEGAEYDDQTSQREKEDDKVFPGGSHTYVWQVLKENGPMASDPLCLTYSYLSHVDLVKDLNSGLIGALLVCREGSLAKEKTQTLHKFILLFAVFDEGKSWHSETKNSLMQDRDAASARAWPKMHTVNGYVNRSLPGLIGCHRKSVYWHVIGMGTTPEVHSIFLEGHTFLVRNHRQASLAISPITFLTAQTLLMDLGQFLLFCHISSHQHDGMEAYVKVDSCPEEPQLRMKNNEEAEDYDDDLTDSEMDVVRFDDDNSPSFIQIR
T3 chain 2: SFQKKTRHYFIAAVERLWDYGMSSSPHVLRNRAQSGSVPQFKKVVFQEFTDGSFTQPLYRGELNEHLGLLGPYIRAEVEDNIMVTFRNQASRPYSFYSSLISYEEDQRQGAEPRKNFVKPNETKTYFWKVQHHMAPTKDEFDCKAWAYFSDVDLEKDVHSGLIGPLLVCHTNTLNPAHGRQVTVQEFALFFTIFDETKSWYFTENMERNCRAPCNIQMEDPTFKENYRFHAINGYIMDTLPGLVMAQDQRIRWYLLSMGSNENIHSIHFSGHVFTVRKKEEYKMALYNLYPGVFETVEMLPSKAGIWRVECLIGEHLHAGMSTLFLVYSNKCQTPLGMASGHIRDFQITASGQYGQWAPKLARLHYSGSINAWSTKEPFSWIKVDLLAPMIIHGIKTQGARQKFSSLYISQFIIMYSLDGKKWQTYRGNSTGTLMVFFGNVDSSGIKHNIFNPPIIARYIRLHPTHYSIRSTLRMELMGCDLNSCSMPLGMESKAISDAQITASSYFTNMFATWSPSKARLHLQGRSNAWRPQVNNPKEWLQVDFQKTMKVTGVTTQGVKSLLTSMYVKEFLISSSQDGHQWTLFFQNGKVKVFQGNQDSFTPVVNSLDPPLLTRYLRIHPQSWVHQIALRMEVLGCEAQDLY

B1: factor VIIIa A2 subunit, wild type (other)
chain: SVAKKHPKTWVHYIAAEEEDWDYAPLVLAPDDRSYKSQYLNNGPQRIGRKYKKVRFMAYTDETFKTREAIQHESGILGPLLYGEVGDTLLIIFKNQASRPYNIYPHGITDVRPLYSRRLPKGVKHLKDFPILPGEIFKYKWTVTVEDGPTKSDPRCLTRYYSSFVNMERDLASGLIGPLLICYKESVDQRGNQIMSDKRNVILFSVFDENRSWYLTENIQRFLPNPAGVQLEDPEFQASNIMHSINGYVFDSLQLSVCLHEVAYWYILSIGAQTDFLSVFFSGYTFKHKMVYEDTLTLFPFSGETVFMSMENPGLWILGCHNSDFRNRGMTALLKVSSCDKNTGDYYEDSYEDISAYLLSKNNAIEPR
Take B1: in test [1], the “Factor VIIIa decay rate relative to wild type, FIXa (+)” value was 20.9 relative to wild type; the “Factor VIIIa decay rate relative to wild type, FIXa (-)” value was 17 relative to wild type; the “Factor VIIIa decay rate, FIXa (+)” value is 0.236 min⁻¹; the “Factor VIIIa decay rate, FIXa (-)” value is 1.07 min⁻¹. Also, in test [2], the “Factor VIIIa decay rate relative to wild type, FIXa (+)” value was 2.11 relative to wild type and the “Factor VIIIa decay rate, FIXa (+)” value was found to be 0.0238 min⁻¹. In test [3], the “Factor VIIIa decay rate relative to wild type, FIXa (+)” value was 0.78 relative to wild type and the “Factor VIIIa decay rate, FIXa (+)” value came to 0.0088 min⁻¹.
